{
  "source": "paper PMC10911789",
  "target": "Recombinant spike, SARS-CoV-2 stabilized protein (BEI Resources NR-52724) (SARS-CoV-2) (UniProt P0DTC2)",
  "assay": "BLI",
  "data": [
    {"substance": "recombinant human GAPDH (glyceraldehyde-3-phosphate dehydrogenase) (from UniProt P04406 1-335) (enzyme)", "values": [
      {"measurement": "Kd", "result": 61.9, "unit": "nM"}
    ]}
  ]
}
